According to the supplement of paper PMC10567573:

B1: TOR1AIP2 (parent)
chain: YTSSQKVSPIQIDGAGRTWQDSDT
B2: TRIM63 (parent)
chain: ANPYWTSRGSSVSMSGGRFRCPTC

Variants of: B1
Assay: protein stability index of a GFP-peptide fusion (GPS, HEK-293T) (PSI 1-6); higher = more stable
Settings: c terminus: a fixed tail appended
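Further: lentivirally expressed fusions sorted by FACS into six bins by GFP to DsRed ratio, PSI derived from sequencing read proportions per bin multiplied by bin number.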

Row | Variant | protein stability index
1 | S3E | 3.87
2 | S3V | 3.3
3 | S3H | 4.38
4 | S3T | 3.08
5 | S3M | 3.01
6 | S3W | 3.04
7 | S3N | 4.21
8 | S3I | 3.13
9 | S3L | 3.18
10 | S3R | 3.39
11 | S3F | 2.95
12 | S3G | 3.61
13 | S3K | 3.82
14 | S3D | 4.32
15 | S3A | 3
16 | S3P | 2.57
17 | S3Q | 3.82
18 | S3C | 3.55
19 | T2G | 3.91
20 | T2L | 3.94
21 | T2M | 3.9
22 | T2D | 5.15
23 | T2N | 4.41
24 | T2S | 4.31
25 | T2W | 2.83
26 | T2K | 4.83
27 | T2Y | 3.54

Row | Variant | protein stability index
28 | T2F | 4.19
29 | T2P | 3.93
30 | T2A | 3.8
31 | T2R | 4.72
32 | T2H | 2.14
33 | T2C | 2.46
34 | T2Q | 3.17
35 | T2E | 4.74
36 | T2I | 2.58
37 | Y1V | 4.26
38 | Y1K | 4.86
39 | Y1S | 4.77
40 | Y1C | 4.22
41 | Y1W | 3.6
42 | Y1N | 4.87
43 | Y1T | 4.68
44 | Y1L | 4.06
45 | Y1E | 5.31
46 | Y1H | 5.19
47 | Y1P | 4.4
48 | Y1A | 3.7
49 | Y1I | 4.3
50 | Y1D | 4.85
51 | Y1M | 5.05
52 | Y1R | 4.8
53 | Y1F | 3.02
54 | Y1Q | 4.64

Variants of: B2
Assay: as above
Settings: c terminus: a fixed tail appended

Row | Variant | protein stability index
55 | G17M | 2.73
56 | G17W | 1.49
57 | G17V | 2.77
58 | G17Q | 2.07
59 | G17N | 1.75
60 | G17E | 1.7
61 | G17P | 1.76
62 | G17I | 2.27
63 | G17T | 1.17
64 | G17F | 1.72
65 | G17D | 1.43
66 | G17H | 1.53
67 | G17C | 1.98
68 | G17A | 1.84
69 | G17R | 2.65
70 | G17L | 1.81
71 | G17S | 2.26
72 | G16H | 2.42
73 | G16W | 1.8
74 | G16P | 2.08
75 | G16R | 1.05
76 | G16Y | 2.24
77 | G16A | 1.72
78 | G16F | 1.32
79 | G16V | 1.3
80 | G16D | 2.23

Row | Variant | protein stability index
81 | G16N | 1.34
82 | G16M | 1.83
83 | G16T | 1.96
84 | G16Q | 1.7
85 | G16E | 1.58
86 | G16K | 2.1
87 | G16C | 1.91
88 | C24G | 3.18
89 | C24S | 2.88
90 | C24D | 3.73
91 | C24F | 2.55
92 | C24I | 2.05
93 | C24E | 3.19
94 | C24T | 2.69
95 | C24Y | 3.28
96 | C24Q | 2.12
97 | C24V | 2.3
98 | C24P | 3.22
99 | C24H | 2.29
100 | C24K | 2.84
101 | C24M | 2.07
102 | C24N | 2.66
103 | C24R | 4.13
104 | R20I | 1.91
105 | R20H | 1.85
106 | R20E | 1.74

Row | Variant | protein stability index
107 | R20G | 1.82
108 | R20L | 1.51
109 | R20N | 1.57
110 | R20C | 2.12
111 | R20S | 2.32
112 | R20Y | 1.96
113 | R20V | 2.13
114 | R20D | 2.79
115 | R20A | 2.38
116 | R20T | 1.78
117 | R20Q | 1.84
118 | R20P | 2.4
119 | R20W | 2.43
120 | R20K | 2.61
121 | R20F | 1.27
122 | R20M | 2.12
123 | G9A | 1.7
124 | G9D | 1.94
125 | G9P | 1.76
126 | G9L | 1.56
127 | G9R | 2.15
128 | G9K | 1.98
129 | G9I | 1.39
130 | G9V | 1.91
131 | G9S | 1.9
132 | G9E | 1.6

Row | Variant | protein stability index
133 | G9W | 1.43
134 | G9Q | 1.3
135 | G9Y | 2.32
136 | G9M | 1.39
137 | G9N | 2.13
138 | G9H | 1.31
139 | G9F | 1.92
140 | T23V | 1.34
141 | T23W | 2.47
142 | T23F | 1.45
143 | T23N | 2.03
144 | T23P | 2.26
145 | T23G | 3.11
146 | T23M | 2.44
147 | T23E | 1.69
148 | T23D | 1.71
149 | T23K | 3.23
150 | T23R | 2.43
151 | T23H | 2.28
152 | T23A | 1.87
153 | T23S | 2.52
154 | T23Y | 1.75
155 | T23L | 2.58
156 | T23Q | 1.95
157 | M14Q | 1.41
158 | M14F | 2.04

Row | Variant | protein stability index
159 | M14S | 2.32
160 | M14H | 2.21
161 | M14P | 2.64
162 | M14L | 2.21
163 | M14V | 1.86
164 | M14K | 1.85
165 | M14N | 2.03
166 | M14G | 1.83
167 | V12Y | 1.69
168 | V12N | 2.03
169 | V12K | 2.19
170 | V12S | 2.46
171 | V12P | 2.78
172 | V12D | 1.67
173 | V12W | 2.87
174 | V12T | 2.9
175 | V12F | 1.64
176 | V12G | 2.1
177 | V12I | 2.46
178 | V12E | 2.16
179 | V12L | 1.29
180 | V12M | 1.63
181 | V12A | 1.49
182 | V12R | 1.32
183 | V12H | 1.98
184 | S11D | 2.08

Row | Variant | protein stability index
185 | S11F | 2.15
186 | S11M | 1.63
187 | S11L | 1.1
188 | S11A | 2.3
189 | S11K | 1.29
190 | S11T | 2.18
191 | S11H | 2.68
192 | S11N | 2.32
193 | S11Y | 1.8
194 | S11C | 1.88
195 | S11Q | 2.55
196 | S11I | 3.32
197 | S11V | 2.21
198 | S11P | 2.14
199 | S11E | 1.76
200 | S7P | 1.27
201 | S7T | 1.58
202 | S7Q | 2.29
203 | S7M | 2.53
204 | S7F | 2.07
205 | S7V | 1.93
206 | S7W | 2.62
207 | S7N | 1.37
208 | S7D | 2.38
209 | S7H | 1.45
210 | S7E | 1.28

Row | Variant | protein stability index
211 | S7L | 1.6
212 | S7I | 3.16
213 | S7Y | 1.54
214 | P22D | 2.22
215 | P22L | 1.24
216 | P22T | 2.69
217 | P22S | 2.19
218 | P22Q | 2.87
219 | P22V | 2.56
220 | P22M | 1.97
221 | P22K | 1.98
222 | P22R | 2.12
223 | P22H | 2.39
224 | P22C | 1.89
225 | P22F | 2.97
226 | P22N | 2.5
227 | P22I | 2.75
228 | R18I | 1.37
229 | R18G | 1.44
230 | R18Q | 1.32
231 | R18N | 2.24
232 | R18P | 1.65
233 | R18D | 2.16
234 | R18C | 1.4
235 | R18M | 2.49
236 | R18F | 1.46

Row | Variant | protein stability index
237 | R18V | 1.08
238 | R18E | 2.48
239 | R18T | 2.14
240 | R18K | 1.44
241 | R18A | 1.89
242 | S15Q | 2.58
243 | S15C | 2.02
244 | S15H | 1.87
245 | S15W | 1.8
246 | S15N | 1.01
247 | S15A | 2.94
248 | S15L | 2.03
249 | S15F | 2.61
250 | S15P | 2.09
251 | S15T | 1.43
252 | S15I | 1.4
253 | S15Y | 1.57
254 | S15E | 2.1
255 | S15D | 2.3
256 | S13N | 2.18
257 | S13W | 1.79
258 | S13P | 2.21
259 | S13Y | 2.18
260 | S13G | 3.37
261 | S13C | 2.02
262 | S13K | 2.39

Row | Variant | protein stability index
263 | S13A | 1.9
264 | S13E | 2.98
265 | S13R | 1.52
266 | S13V | 1.89
267 | S13H | 1.9
268 | S13L | 2.07
269 | S13F | 1.93
270 | S13Q | 2.13
271 | S13D | 2.06
272 | S13I | 1.58
273 | S13T | 1.83
274 | R8M | 1.39
275 | R8L | 2.33
276 | R8A | 1.85
277 | R8Y | 1.71
278 | R8E | 3.19
279 | R8I | 1.4
280 | R8Q | 1.99
281 | R8P | 1.55
282 | R8T | 1.8
283 | R8K | 1.95
284 | R8D | 1.91
285 | R8C | 1.23
286 | R8N | 1.92
287 | R8G | 1.55
288 | R8V | 1.95

Row | Variant | protein stability index
289 | R8H | 1.41
290 | R8F | 1.27
291 | R8S | 1.65
292 | S10P | 1.75
293 | S10V | 1.72
294 | S10E | 1.76
295 | S10F | 2.56
296 | S10Y | 1.57
297 | S10K | 1.65
298 | S10M | 1.84
299 | S10L | 1.46
300 | S10Q | 2.83
301 | S10C | 2.18
302 | S10H | 2.44
303 | S10A | 1.68
304 | S10T | 2.24
305 | S10W | 3.35
306 | F19S | 3.07
307 | F19C | 3.67
308 | F19I | 2.34
309 | F19E | 3.29
310 | F19R | 2.51
311 | F19D | 2.75
312 | F19Q | 2.19
313 | F19A | 2.04
314 | F19M | 2.79

Row | Variant | protein stability index
315 | F19G | 3.02
316 | F19H | 2.12
317 | F19Y | 2.04
318 | F19T | 2.94
319 | F19N | 2.24
320 | F19P | 2.25
321 | C21E | 3.46
322 | C21W | 1.71
323 | C21R | 2.77
324 | C21N | 2.77
325 | C21Y | 2.15
326 | C21I | 2.67
327 | C21V | 1.9
328 | C21L | 2.32
329 | C21K | 2.97
330 | C21P | 2.72
331 | C21T | 2.23
332 | C21M | 3.26
333 | C21F | 1.76
334 | C21G | 2.86
